experiment: soluble on expression in E. coli; label from the status in PepcDB or PDB records

Row | Sequence | soluble on expression in E. coli
1 | MSLRVADLLQHINLMKTSDSYGFKEEYESFFEGQSASWDVAKKDQNRAKNRYGNIIAYDHSRVILQPVEDDPSSDYINANYIDGYQRPSHYIATQGPVHETVYDFWRMIWQEQSACIVMVTNLVEVGRVKCYKYWPDDTEVYGDFKVTCVEMEPLAEYVVRTFTLERRGYNEIREVKQFHFTGWPDHGVPYHATGLLSFIRRVKLSNPPSAGPIVVHCSAGAGRTGCYIVIDIMLDMAEREGVVDIYNCVKALRSRRINMVQTEEQYIFIHDAILEACLCGETAIPVCEFKAAYFDMIRIDSQTNSSHLKDEFQTLNSVTPRLQAEDCSIACLPRNHDKNRFMDMLPPDRCLPFLITIDGESSNYINAALMDSYRQPAAFIVTQYPLPNTVKDFWRLVYDYGCTSIVMLNEVDLSQGCPQYWPEEGMLRYGPIQVECMSCSMDCDVINRIFRICNLTRPQEGYLMVQQFQYLGWASHREVPGSKRSFLKLILQVEKWQEECEEGEGRTIIHCLNGGGRSGMFCAIGIVVEMVKRQNVVDVFHAVKTLRNSKPNMVEAPEQYRFCYDVALEYLESSEGHHHHHH | soluble
2 | MSLRVLFLRPDNEDNELNEKLMILRKNGIEVLNIPIFKIKCVSYSLPTYDYEALAFTSRNSVICFKDRTLIKNVHKIYAIGEETAELLMKMYNVNPITPERFTSIELAKRILEDKVNSILSIRSRKASEDMRNILNGKIKYDEIYVYDSEIIRDNINEISKILTECEVDAIAFTSSLMAKLIGPFIRGKCNIIIFSIGPMTTETLKRVNNKVKIIESKTHSIKGIIETILVEMKRNGRDEGHHHHHH | soluble
3 | MSLRVTLREVAQEAGVSLKTASNVINHSGRMADATREKVQDVIDRLGYRVNVSARNLNRGKTGFITLAVPSLTAPYLAELANRVIDAARIYGYSVYITTYAEGSAQGARALLRNFNATVSDGMILSISEVEDLDPEDLDVDYPLVCVGARSTHGKADHVTPDDVQEARLAAQYLFDHGATNLAVIGSRTDPEHILELRDAVEGNAQLRMRGIFEACADQGVELDTRLVPNVGQDWTIGSGARMTQRIVDSGIPFDGIVAFNDQLALGALFTLAANGIAVPDRVQVIGFDNNEEAAYFQPPLTTMDSCLDWIAPTAVSRIINRIDGSRTLEPELITTQSRIIARATTRAEGHHHHHH | soluble
4 | MSLRVVLKLGTSVLTAGTDRLHRPRLVDLMRDIAAVSAQGHEVVLVSSGAVTAGWEALGFPPRERTLAEKQLLAAVGQVQLMHLYTSLAELYGLRSAQLLLTADDFRERTRYLNARTTLEGCLSRGVLPVINENDTVAVEQIKVGDNDTLSAFVANLVEADLLLILTDAPGLYTADPRTHPDATLIPVVERVTPDIWALAGGAGSHRGTGGMHTKIQAAEIATRAGTPVVIAPGDLPEALRRVVDGEALGTRFLAHGTRLEARKRWILAEIAHGRLLLDGGAAQAVRERGSSLLPAGIRQVEGDFERGHTVRLLAPDGQELGRGLTRYRADDLRRVCGHHSREIEALLGYTYGEEAVHRDDLVLLEGHHHHHH | soluble
5 | MSLRWQWRIYEEPLQEPLTTAQGVWRSRSGIYLRLEDEQGQVGYGEIAPLPGWGSETLNADIALCQQLPGHLTPEIMATIPEALPAAQFGFATAWQSVGRLPYRVRPWPICALLGSGQAALEQWQQSWQRGQTTFKWKVGVMSPEEEQAILKALLAALPPGAKLRLDANGSWDRATANRWFAWLDRHGNGKIEYVEQPLPPDQWQALLSLAQTVTTAIALDESVVSAAEVQRWVDRGWPGFFVIKTALFGDPDSLSLLLRRGLEPQRLVFSSALEGAIARTAIFHLLETWQPCHALGFGVDRWRSAPLLTTLTAYERLWERLDQGHHHHHH | soluble
6 | MSLRYLLGIDVGTSGTKTALFDECGNTIKTSTHEYELFQPQVGWAEQNPENWWTACVKGIREVIEKSKIDPLDIKGIGISGQMHGLVLIDKEYKVIRNSIIWCDQRTEKECTQITDTIGKEKLIRITGNPALTGFTLSKLLWVRNNEPDNYKRIYKVLLPKDYIRFKLTGVFAAEVSDASGTQMLDINTRNWSEELLDDLRIDKNILPDVYESVVVSGCVIEKASKETKLAVNTPVVGGAGDQAAGAIGNGIVREGLISTVIGTSGVVFAATDTPRFDSKGRVHTLCHAVPNKWHIMGVTQGAGLSLNWFKRTFCAKEILESKEAGINIYDLLTEKASQSKPGSNGIIYLPYLMGERTPHIDPNVKGAFLGISLINNHNDFVRSILEGVGFSLKNCLDIIENMKVNIEEIRVSGGGAESSIWRQILSDIFNYELTTVKASEGPALGVAILAGVGAGIYNSVEEACDKIVKGNEKVMPNANLIEVYSKVYEVYNSAYPKIKDEGHHHHHH | soluble
7 | MSLSANFSENISRLGLSSRSKQEKLAHLMETELTHLQASFIEAPTGLGKTYGYLLPILASGKGLVVSTATKVLQKQLVNDVAPKLGKTFGLKMAKIVGTKNYISLRKFSELLLNNTDGKNFEIFKMKILIWLTETRTGELDEVSKVMTNDDYFEVIRHDGYVNTKQLHYEQDFWLKAQKEAEQAEIKVVNHAYLIERLADYPETFLENRVLVVDEAQQLFPIMENAGQKSLKITDELIKIDAETSENPQLTKRLQESLVFQLNKKELDLNKIKIDADELGLRNLSALLEADNQIVWRENGMLYASDQDFYNFERLIPKNTKLFMLGATLSLSKDKPSFPDLLGFTDYRFFKIEGNQATNQQLLTVTDAPNIKNLSLIDYADYTANSIGELSKLNLPMVVLFTSKMALTFVAEKLSAEGFEILAQDINGSPAQIKKKFDKGEGKILLGLGSFWEGVDFDKQNQVILVIPRLPFATPDDILTKKYAQKFENPFYDFNVPMATLKLRQAIGRVNRRKNQYSSIVVLDKRLAGKSYAKRMRKNLSETLPVKMLNLLDTISEIKNFLIEGHHHHHH | not soluble
8 | MSLSASQTSDVPTLLVKIFGKDRPGITAGLFDTLAAYSVDVVDIEQVVTRGRIVLCALVTEPPRGLEGDLRATVHSWAESLKLQAEIISGIGDNRPRGFGRSLVTVLGHPLTAEATAAIAARITESGSNIDRIFRLAKYPVTAVEFAVSGVETEPLRTALATEAAALGVDIAVVAAGLHRRAQRLVVMDVDSTLIQDEVIELFAAHAGCEDEVAEVTAAAMRGELDFEQSLHARVALLAGLDASVVDKVRAEVRLTPGARTLIRTLKRLGYQVGVVSGGFTQVTDALQEQLGLDFAQANTLEIVDGRLTGRVTGEIVDRAGKARLLRRFAAAAGVPLSQTVAIGDGANDLDMLNAAGLGVAFNAKPVVREAAHTAVNVPFLDTVLYLLGITREEVEAADTLADDLGDGPGREGHHHHHH | soluble
9 | MSLSAYAELHCLSNFSFQRGASSAAELFQRAKALGYQALAITDECTLAGIVRAWQASRDTGLKLIVGSEMQVEDGPRLVLLVEDLAGYQGLCRLITRARRRAEKGSYRLLREDFAEPLPGLLALWLTGAGEPLAQGRWLQQVFPQRLWLALELHCGQDDARHLQQQLALARQLGLPAVACGDVHMHVRGRRALQDTMTAIRHHLPVAEAGQRLFANGERHLRPVEVLQGLYPQALLDESLAIAGRCAFDLGQLRYQYPRELVPEGHDAGSWLRVLTQRGIVRRWPTGARAEVLKQIDKELTLICDLGYESYFLTVHDIVDFARRQHILCQGRGSAANSVVCFALGITEIDPDRSTLLFERFLSRERNEPPDIDVDFEHERREEVLQYLFQRYGRHRAALTAVVSTYHGAGAVRDVAKALGLPPDQVNALADCCGHWSDTPPSVERLQEAGFDPQSPVLRRVLSLTGQLIGFPRHLSQHPGGFVISEQPLDHLVPVENATMAERTVIQWDKDDLDMVGLLKVDILALGMLSAIRRCFDLIHGYRGQRYSLASIPPEDPATYEMIGRADTIGVFQIESRAQMSMLPRLKPQNFYDLVIEVAIVRPGPIQGGMVHPYLRRRNRQEPETYPSPELEGVLKRTLGVPLFQEQVMQIAIVAADYTPGEADQLRRSMAAWKRHGGLEPHRERLRRGMNRNGYSDEFATQIFEQIKGFGSYGFPESHAASFALLTYASCWLKCHEPAAFACALINSWPMGFYSPDQILQDARRHGLQVLAVDVGASDWDCSLEPIPVQPARAGNGPPGQPALRLGLRMIKGFREDDARRIERARRQRAFVDIADLGERARLDVRAQELLADAGALQALAGDRYRARWEVAGVERQLGLFAEGHHHHHH | soluble
10 | MSLSDAISFRPMTEADLDAVLKIEYAAFSHPWTRGIFSEGLKNYHCWLMFEGSQQVGHGVIQIILDEAHLLNITVKPESQGRGLGLRLLEHLMREAAGHQARECFLEVRASNQAAYRLYERYGFNEIGRRRDYYPAVGGREDALVMACTLFDEGHHHHHH | soluble
11 | MSLSDFDYIQKNTPPEFPEKFKTALLPENIKKNRYSDVLANDDTRVKLNNNGYINANYIFQGRMIASQAPTIETIPDFLQMIIEQQVPIVIMLTKCKEKTRIKATPYWGYKSEGGKKVFGNYTVNTIDTLYDDVEEDKFMEDIQIRYLQIIYEDGVYSFIQIHYMGWPDFGVPLNPKDALDIVYIQYIIGTTSKFSNRNLVCVHCSAGVGRTGVYCLLSRIVEMVTYEILEKSETYSKQRSTSSSSKVREVEDRIEEILLSHPVISYEDCEVILPELVLSIRNERSKMVQTKEQYDFICETVNCFYEDALDSINQYYEVIDALTPLLQEKHSEIVQDFIKRNEEGHHHHHH | soluble
12 | MSLSDLPDDIFQIIVKKLGDEDFNHLGPIIRSNKRGRDIGLSREILKSANLMGMCLHPPNIFPGQLFRNFFVRCLEFENATAMYYEAIRLIVREENVMGSLFLLNQLVPTYDYATIAYAFFQMCAGRGDLAGTTFDTIFEQNSVSRWGSIYSFELEVKCEALIDTIMDFQPHFGMTFAPDWKFASSDCLSISECPDWHGVEYFCEGCYIYYVALRILEVL | soluble
13 | MSLSEAGYPRKVMQHAEELHERILSFDSRITVPLDFGTTGNEVDKDGPGQLDLVKAGRGRLSGAALAIFGWPEMWNGPNAPHKPTPGFVDEARHQQEIRYKILTGMVRDFPNQVGIAYSPEDFRRLAMEGKFAIVMSMLNAYPLGDDLSQLDKWAARGVRMFGFSYVGNNDWADSSRPLPFFNDSPDALGGLSPLGKQAVERLNDLGVIIDVSQMSTKALEQVAALSRAPIVASHSAPRALVDIKRNLSDHEMQLIKDSGGVIQVVGFPAYLRPLSKPTLDKLDALRARFDLPPLEGLDYALMPGDPIITIWPEQRFGEYASALYGILEEEPKAGLKELVDAIDYTVKKVGIDHVGISSDFNDGGGVDGWKDVSEIRNVTAELITRGYSDADIAKLWGGNFLRAWGEVQNAPSRQPPPKGIITITTDPNSSSVDKLAAALEHHHHHH | soluble
14 | MSLSEDLRFFEFFAGGGMARAGLGNQWQCLFANDMDRIKASTYIQNWGKDHFDSRDIREVNSEDLERNGDLAWASFPCQDLSVAGNGLGIGSSSAKDFTRSGALWPFLDLIDTLRQEERQPPLLVLENVVGLLTLEGGRDFAAICERLGEIGYRYGAVIIDAKHFLPQSRPRVFIIAVQRNIDIPCKLSRGMATANWHTPTLLRAYKSLTPILHADWVWWELGDAPILQENALESFIQREGVLWNTPEETKRIISMMAPAHLARLENAKCAGGVAVGSLYLRMRREGGINKQRAEITFSPLLGCLRTPRGGASRPRIIVVESGHVRTRLLTICEAARLMGLANTYILPEIYHHAFKVIGDGVAVPAVRFLAERLLEPLAIAARGQIAIPHEKAFMAEGHHHHHH | soluble

Source: the DeepSol protein solubility set
